Results taken from patent publication US7037504B2, “Epidermal growth factor protein and gene, and methods of use therefor” (Waratah Pharmaceuticals, Inc., priority 2001, dated 2006).

Experiments:
[1] = target: T1, carboxypeptidase B (Homo sapiens, UniProt P15086); assay: Resistance in vitro to digestion with carboxypeptidase B; type: in vitro ADME
T1 sequence (P15086 111-417): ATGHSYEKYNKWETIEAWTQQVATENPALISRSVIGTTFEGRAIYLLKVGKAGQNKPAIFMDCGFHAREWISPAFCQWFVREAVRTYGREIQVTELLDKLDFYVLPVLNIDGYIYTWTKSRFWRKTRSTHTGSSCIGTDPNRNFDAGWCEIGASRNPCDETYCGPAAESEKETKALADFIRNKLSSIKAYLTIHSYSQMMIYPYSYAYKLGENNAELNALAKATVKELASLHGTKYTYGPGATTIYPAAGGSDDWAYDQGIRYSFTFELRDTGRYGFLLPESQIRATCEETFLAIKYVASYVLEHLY

[2] = test system: anaesthetized gastric fistula rats; assay: Inhibition of gastric acid secretion in vivo; design: species or system rat; conditions: after intravenous bolus injection of 8 μg
[3] = test system: streptozotocin-induced diabetic rats; assay: Stimulation of islet neogenesis in vivo, glucose challenge in diabetic rats; design: species or system rat
Description: After treatment, rats were evaluated for ability to restore plasma glucose to resting levels, shown on the ordinate, as a function of time in minutes shown on the abscissa, after an oral glucose challenge.
EGF51N produced as above was used in an assay to measure to stimulation of islet neogenesis in vivo, as measured by lower blood concentration of treated animals to a subsequent challenge by glucose, to diabetic rats.

[4] = relative enzyme concentration (ratio of carboxypeptidase to EGF) 0.01
[5] = relative enzyme concentration (ratio of carboxypeptidase to EGF) 0.1
[6] = relative enzyme concentration (ratio of carboxypeptidase to EGF) 1 (excess enzyme)

| Compound | % remaining [1, 4] | % remaining [1, 5] | % remaining [1, 6] | duration of inhibition of gastric acid production [2] | onset of inhibition of gastric acid production [2] | restoration of plasma glucose to resting levels after oral glucose challenge ([3]; 40 μg/kg/day of each of human gastrin and EGF51N, intraperitoneal continuous infusion for 14 days) | potency in stimulation of islet neogenesis ([3]; diabetic rats, glucose challenge, compared with positive control TGFα) |
| --- | --- | --- | --- | --- | --- | --- | --- |
| CC[C@H](C)[C@@H]1NC(=O)[C@H](Cc2ccc(O)cc2)NC(=O)CNC(=O)[C@H](C(C)C)NC(=O)[C@H](C(C)C)NC(=O)[C@@H](NC(=O)[C@H](CC(N)=O)NC(=O)[C@@H]2CSSC[C@@H]3NC(=O)[C@H](Cc4ccc(O)cc4)NC(=O)CNC(=O)[C@H](CC(=O)O)NC(=O)[C@H](Cc4c[nH]cn4)NC(=O)[C@H](CO)NC(=O)[C@H](CC(C)C)NC(=O)[C@@H]4CCCN4C(=O)[C@@H](NC(=O)[C@H](CCC(=O)O)NC(=O)[C@H](CO)NC(=O)[C@H](CC(=O)O)NC(=O)[C@H](CO)NC(=O)[C@@H](N)CC(N)=O)CSSC[C@H](NC(=O)[C@H](C(C)C)NC(=O)CNC(=O)[C@H](CC(=O)O)NC(=O)[C@H](Cc4c[nH]cn4)NC(=O)[C@H](CC(C)C)NC3=O)C(=O)N[C@@H](CCSC)C(=O)N[C@@H](Cc3ccc(O)cc3)C(=O)N[C@@H]([C@@H](C)CC)C(=O)N[C@@H](CCC(=O)O)C(=O)N[C@@H](C)C(=O)N[C@@H](CC(C)C)C(=O)N[C@@H](CC(=O)O)C(=O)N[C@@H](CCCCN)C(=O)N[C@@H](Cc3ccc(O)cc3)C(=O)N[C@@H](C)C(=O)N2)CSSC[C@@H](C(=O)N[C@@H](CCC(N)=O)C(=O)N[C@@H](Cc2ccc(O)cc2)C(=O)N[C@@H](CCCNC(=N)N)C(=O)N[C@@H](CC(=O)O)C(=O)N[C@@H](CC(C)C)C(=O)N[C@@H](CCCCN)C(=O)N[C@@H](Cc2c[nH]c3ccccc23)C(=O)N[C@@H](Cc2c[nH]c3ccccc23)C(=O)N[C@@H](CCC(=O)O)C(=O)N[C@@H](CC(C)C)C(=O)N[C@@H](CCCNC(=N)N)C(=O)O)NC(=O)[C@H](CCCNC(=N)N)NC(=O)[C@H](CCC(=O)O)NC(=O)CNC1=O [EGF53, reference compound] | 75% | 1% | 1% | – | – | – | – |
| EGF51N: modified human EGF, chain length 51 amino acids, C-terminus residue asparagine instead of glutamic acid; produced in Pichia pastoris (NSDSECPLSHDGYCLHDGVCMYIEALDKYACNCVVGYIGERCQYRSLKYYN; not fully specified; Recombinant human EGF51N) | 75% | 30% | 6% | 20 to 50 min | 10 to 20 min | Rapid restoration to resting levels of plasma glucose | equivalent to the positive control TGFα |
